The source of these data is publication PMC5760199, “Structural insights into the assembly and polyA signal recognition mechanism of the human CPSF complex”.

A value given as a limit tells only on which side of the number the result lay.

The target in data set [1] is CPSF160FL;WDR33 M1-K410 K46A/R47A;CPSF30 ZF1-3 (Homo sapiens;Homo sapiens;Homo sapiens, UniProt Q10570;Q9C0J8;O95639-3 1-1443;1-410;1-117, |K46A;R47A|). The experiment in a line: fluorescence polarization; 20 mM Tris pH 7.5, 150 mM NaCl, 1 mM DTT, 0.05% Tween 20, 25 C, 0.1 nM labelled RNA. As to conditions: protein: recombinant;recombinant;recombinant; tags: His6 (438B vector); copies: 1;1;1; label: 5' Atto532. On the technique in general: In fluorescence polarisation assays a small probe gives low polarisation when free and higher when bound to something large.

The target in data set [2] is CPSF160FL;WDR33 M1-K410;CPSF30 ZF1-5;Fip1CD (Homo sapiens;Homo sapiens;Homo …, UniProt Q10570;Q9C0J8;O95639-3;Q6UN15-4 1-1443;1-410;1-169;130-195, |||). The data set is described as above. As to conditions: protein: recombinant;recombinant;recombinant;recombinant; tags: His6 (438B vector; Ni-NTA and Streptactin purified);;; copies: 1;1;1;1; label: 5' Atto532.
Data set [3] concerns the target CPSF160FL;WDR33 M1-K410;CPSF30 ZF1-3 (Homo sapiens;Homo sapiens;Homo sapiens, UniProt Q10570;Q9C0J8;O95639-3 1-1443;1-410;1-117, ||). The data set is described as above. As to conditions: protein: recombinant;recombinant;recombinant; tags: His6 (438B vector; Ni-NTA and Streptactin purified);; copies: 1;1;1; label: 5' Atto532.
Data set [4] has as its target CPSF160FL;WDR33 M1-K410 R49A/K50A;CPSF30 ZF1-3 (Homo sapiens;Homo sapiens;Homo sapiens, UniProt Q10570;Q9C0J8;O95639-3 1-1443;1-410;1-117, |R49A;K50A|). The description is as above. As to conditions: protein: recombinant;recombinant;recombinant; tags: His6 (438B vector); copies: 1;1;1; label: 5' Atto532.
For data set [5], the target named is T1, CPSF160FL;WDR33 M1-K410;CPSF30FL;Fip1FL (Homo sapiens;Homo sapiens;Homo …, UniProt Q10570;Q9C0J8;O95639-3;Q6UN15-4 1-1443;1-410;1-243;1-378, |||). The experiment in a line: fluorescence polarization; error 0.09 in text, 0.90 in Table 2; 20 mM Tris pH 7.5, 150 mM NaCl, 1 mM DTT, 0.05% Tween 20, 25 C, 0.1 nM labelled RNA. As to conditions: protein: recombinant;recombinant;recombinant;recombinant; tags: His6 (438B vector; Ni-NTA and Streptactin purified);;; copies: 1;1;1;1; label: 5' Atto532.

Data set [6] has as its target T1, CPSF160FL;WDR33 M1-K410;CPSF30FL;Fip1FL. The experiment in a line: fluorescence polarization; two repeats; 20 mM Tris pH 7.5, 150 mM NaCl, 1 mM DTT, 0.05% Tween 20, 25 C, 0.1 nM labelled RNA. As to conditions: protein: recombinant;recombinant;recombinant;recombinant; tags: His6 (438B vector; Ni-NTA and Streptactin purified);;; copies: 1;1;1;1; label: 5' Atto532.

CPSF160FL;WDR33 M1-K410;CPSF30 ZF1-3, sequence (Q10570 whole entry, chain 1 of 3): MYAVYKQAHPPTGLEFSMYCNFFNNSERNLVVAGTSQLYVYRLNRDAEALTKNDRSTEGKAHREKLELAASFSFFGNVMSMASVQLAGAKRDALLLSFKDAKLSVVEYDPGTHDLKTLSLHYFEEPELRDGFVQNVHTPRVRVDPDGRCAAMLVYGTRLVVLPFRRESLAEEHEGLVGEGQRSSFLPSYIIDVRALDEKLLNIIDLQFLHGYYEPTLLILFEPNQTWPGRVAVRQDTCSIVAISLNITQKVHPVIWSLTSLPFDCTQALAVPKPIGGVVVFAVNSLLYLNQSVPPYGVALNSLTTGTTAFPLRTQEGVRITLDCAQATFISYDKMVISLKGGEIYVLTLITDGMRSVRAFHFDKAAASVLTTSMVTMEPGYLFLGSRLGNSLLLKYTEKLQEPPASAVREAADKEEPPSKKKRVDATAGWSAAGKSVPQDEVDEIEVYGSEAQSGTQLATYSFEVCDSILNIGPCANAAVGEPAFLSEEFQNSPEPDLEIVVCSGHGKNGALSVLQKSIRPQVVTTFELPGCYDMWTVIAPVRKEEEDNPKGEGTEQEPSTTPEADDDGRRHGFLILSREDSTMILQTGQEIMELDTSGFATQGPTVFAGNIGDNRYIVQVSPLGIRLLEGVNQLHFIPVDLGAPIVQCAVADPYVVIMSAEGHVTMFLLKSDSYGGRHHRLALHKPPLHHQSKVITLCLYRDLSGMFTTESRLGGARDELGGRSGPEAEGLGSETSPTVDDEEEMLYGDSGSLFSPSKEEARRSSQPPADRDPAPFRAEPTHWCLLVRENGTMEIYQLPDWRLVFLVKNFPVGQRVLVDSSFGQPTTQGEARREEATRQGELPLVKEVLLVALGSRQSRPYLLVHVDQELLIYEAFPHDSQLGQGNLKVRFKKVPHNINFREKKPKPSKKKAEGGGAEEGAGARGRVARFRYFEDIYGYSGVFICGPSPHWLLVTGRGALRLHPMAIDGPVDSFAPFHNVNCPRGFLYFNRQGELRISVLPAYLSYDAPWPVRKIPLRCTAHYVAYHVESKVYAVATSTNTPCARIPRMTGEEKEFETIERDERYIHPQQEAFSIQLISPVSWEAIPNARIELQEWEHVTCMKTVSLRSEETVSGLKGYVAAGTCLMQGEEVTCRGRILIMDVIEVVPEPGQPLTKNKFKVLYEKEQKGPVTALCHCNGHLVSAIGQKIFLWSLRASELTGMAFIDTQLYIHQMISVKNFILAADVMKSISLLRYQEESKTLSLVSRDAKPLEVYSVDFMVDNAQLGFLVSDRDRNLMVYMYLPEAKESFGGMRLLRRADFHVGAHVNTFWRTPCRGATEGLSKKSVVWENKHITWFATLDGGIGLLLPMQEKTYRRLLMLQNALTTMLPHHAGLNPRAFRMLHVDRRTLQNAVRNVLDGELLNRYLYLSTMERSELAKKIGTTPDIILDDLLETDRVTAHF
CPSF160FL;WDR33 M1-K410;CPSF30 ZF1-3, sequence (Q9C0J8 1-410, chain 2 of 3): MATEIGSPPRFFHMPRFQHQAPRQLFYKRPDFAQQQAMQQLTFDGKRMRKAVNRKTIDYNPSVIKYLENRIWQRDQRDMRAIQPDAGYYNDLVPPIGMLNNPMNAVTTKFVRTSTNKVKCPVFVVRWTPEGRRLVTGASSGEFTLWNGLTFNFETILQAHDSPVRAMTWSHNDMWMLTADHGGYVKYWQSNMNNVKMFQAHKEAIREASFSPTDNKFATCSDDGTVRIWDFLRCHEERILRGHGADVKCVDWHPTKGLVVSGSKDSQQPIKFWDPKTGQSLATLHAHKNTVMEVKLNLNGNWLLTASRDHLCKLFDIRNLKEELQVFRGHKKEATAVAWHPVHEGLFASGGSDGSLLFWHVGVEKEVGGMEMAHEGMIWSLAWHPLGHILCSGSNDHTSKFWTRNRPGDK
CPSF160FL;WDR33 M1-K410;CPSF30 ZF1-3, sequence (O95639 1-117, chain 3 of 3): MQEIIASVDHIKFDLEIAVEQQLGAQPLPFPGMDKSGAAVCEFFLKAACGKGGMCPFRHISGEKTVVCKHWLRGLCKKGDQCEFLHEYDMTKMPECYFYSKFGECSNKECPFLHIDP
CPSF160FL;WDR33 M1-K410;CPSF30 ZF1-5;Fip1CD, sequence (Q10570 whole entry, chain 1 of 4): as the sequence (Q10570 whole entry, chain 1 of 3) above
CPSF160FL;WDR33 M1-K410;CPSF30 ZF1-5;Fip1CD, sequence (Q9C0J8 1-410, chain 2 of 4): as the sequence (Q9C0J8 1-410, chain 2 of 3) above
CPSF160FL;WDR33 M1-K410;CPSF30 ZF1-5;Fip1CD, sequence (O95639 1-169, chain 3 of 4): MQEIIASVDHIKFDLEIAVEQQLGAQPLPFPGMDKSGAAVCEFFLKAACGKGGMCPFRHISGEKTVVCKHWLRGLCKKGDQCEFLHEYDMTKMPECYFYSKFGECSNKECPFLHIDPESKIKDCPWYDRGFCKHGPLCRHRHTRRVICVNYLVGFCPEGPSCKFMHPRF
CPSF160FL;WDR33 M1-K410;CPSF30 ZF1-5;Fip1CD, sequence (Q6UN15 145-210, chain 4 of 4): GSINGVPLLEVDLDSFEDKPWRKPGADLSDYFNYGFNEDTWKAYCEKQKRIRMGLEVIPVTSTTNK
T1 sequence (Q10570 whole entry, chain 1 of 4): as the sequence (Q10570 whole entry, chain 1 of 3) above
T1 sequence (Q9C0J8 1-410, chain 2 of 4): as the sequence (Q9C0J8 1-410, chain 2 of 3) above
T1 sequence (O95639 other isoform, or with tags, fused parts or gaps |||, chain 3 of 4): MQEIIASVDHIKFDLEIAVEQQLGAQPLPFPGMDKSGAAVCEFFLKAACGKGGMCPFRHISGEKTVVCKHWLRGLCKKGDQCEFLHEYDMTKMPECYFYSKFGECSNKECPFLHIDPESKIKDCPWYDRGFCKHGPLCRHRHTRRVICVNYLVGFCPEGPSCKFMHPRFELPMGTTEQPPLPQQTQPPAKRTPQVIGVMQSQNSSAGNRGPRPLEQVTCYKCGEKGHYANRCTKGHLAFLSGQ
T1 sequence (Q6UN15 other isoform, or with tags, fused parts or gaps |||, chain 4 of 4): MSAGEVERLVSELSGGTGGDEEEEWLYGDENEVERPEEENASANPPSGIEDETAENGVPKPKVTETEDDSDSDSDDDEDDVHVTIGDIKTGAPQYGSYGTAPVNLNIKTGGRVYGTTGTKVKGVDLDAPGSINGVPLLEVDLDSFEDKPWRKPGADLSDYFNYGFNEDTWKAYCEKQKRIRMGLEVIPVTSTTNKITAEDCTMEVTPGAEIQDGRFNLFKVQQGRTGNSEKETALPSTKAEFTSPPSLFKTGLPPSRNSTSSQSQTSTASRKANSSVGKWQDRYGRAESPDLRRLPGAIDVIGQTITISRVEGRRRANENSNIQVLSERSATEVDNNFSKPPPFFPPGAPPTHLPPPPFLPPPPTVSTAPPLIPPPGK
CPSF160FL;WDR33 M1-K410 R49A/K50A;CPSF30 ZF1-3, sequence (Q10570 whole entry, chain 1 of 3): as the sequence (Q10570 whole entry, chain 1 of 3) above
CPSF160FL;WDR33 M1-K410 R49A/K50A;CPSF30 ZF1-3, sequence (Q9C0J8 1-410 R49A/K50A, chain 2 of 3): as the sequence (Q9C0J8 1-410, chain 2 of 3) above, with R49A, K50A counted along it
CPSF160FL;WDR33 M1-K410 R49A/K50A;CPSF30 ZF1-3, sequence (O95639 1-117, chain 3 of 3): as the sequence (O95639 1-117, chain 3 of 3) above
CPSF160FL;WDR33 M1-K410 K46A/R47A;CPSF30 ZF1-3, sequence (Q10570 whole entry, chain 1 of 3): as the sequence (Q10570 whole entry, chain 1 of 3) above
CPSF160FL;WDR33 M1-K410 K46A/R47A;CPSF30 ZF1-3, sequence (Q9C0J8 1-410 K46A/R47A, chain 2 of 3): as the sequence (Q9C0J8 1-410, chain 2 of 3) above, with K46A, R47A counted along it
CPSF160FL;WDR33 M1-K410 K46A/R47A;CPSF30 ZF1-3, sequence (O95639 1-117, stated change not applied, chain 3 of 3): as the sequence (O95639 1-117, chain 3 of 3) above

Turning to CACACAAUAAAGGCAA (ssRNA) [L3 PAS RNA wild-type (AAUAAA)], the dissociation constant Kd is 7.78 ± 0.78 nM in data set [1]; 0.11 ± 0.03 nM in data set [2]; below 0.1 nM in data set [3]; 2.42 ± 0.66 nM in data set [4]; 0.65 ± 0.09 nM in data set [5].
For the molecule CACACAAGAAAGGCAA (ssRNA) [L3 PAS RNA mutant (AAGAAA)], the Kd in data set [2] stood at 70 ± 6 nM; in data set [3], 43 ± 2 nM; in data set [6], 120 ± 23 nM.

As usually defined, the Kd is the free concentration of one partner at which half of the binding sites on the other are occupied at equilibrium, for simple one-to-one binding.
